Test [1] concerns the target RSV strain A2 pre-fusion F, single-chain triple mutant (SC-TM) construct (respiratory syncytial virus subgroup A …). In words: cell-based or functional assay.
Test [2] has as its target RSV strain 18537 B pre-fusion F (Ds-Cav1) (Human respiratory syncytial virus …, UniProt P13843, stabilised). The test is described as follows: cell-based or functional assay.
For test [3], the target named is T1, RSV strain 18537 post-fusion F (Human respiratory syncytial virus …, UniProt P13843, strain).
T1 construct: also called RSV B 18537 (post); source: HEK293, transfected, purified from culture supernatant (HiTrap Talon crude)
The test is described as follows: ELISA. The following applies: both partners purified.

The target in test [4] is T2, RSV strain A2 post-fusion F (Human respiratory syncytial virus …, UniProt P03420, strain).
T2 construct: source: HEK293, transfected, purified from culture supernatant (HiTrap Talon crude)
In words: ELISA. The following applies: both partners purified. In general terms: In an ELISA, binding on a coated surface is turned into a signal by an enzyme label.

B1: hRSV12 (antibody, V domains shown)
VH: QVQLVQSGAEVKKPGTSVRVSCKTSGYNFMNYGIYWVRQAPGQGLEWVGWISAYNGQTDRAQKFQGRVTMTTDISTNTGYMDLRSLRSDDTAVYFCARGPPVIAAVSLEYWGRGTLVTVSS
VL: EVVMTQSPLSLPVTLGQPASISCKSSQSLVHSNGDTYLNWFQQRPGQSPRRLIYKVSNRDSGVPDRFSGSGSGTDFTLKISRVETEDVGVYYCMQATHWPGSFGQGTKLEIK
Regarding B1, the “plaque-reduction neutralization of RSV A2 (IC50)” value in test [1] was found to be 0.176 µg/mL. Moreover, the “plaque-reduction neutralization of RSV 18537 B (IC50)” value in test [2] was 0.126 µg/mL.

B2: hRSV20 (antibody, V domains shown)
VH: QVQLVESGGGLVQPGRSLRLSCAASGFTFDDYAMHWVRQAPGRGLEWVSGISWNSGIAVYADSVKGRFTISRDNAKKSLYLQINSLRAEDTALYYCVKDNYASGSYSSYYYYYGLDLWGQGTLVTVSS
VL: EIVMTQSPATLSVSPGERATLSCRASQSIISNLAWYQQKPGQAPRLLIYGVSTRATGIPARFSGSGSDTEFTLSISSLQSEDFAVYYCQQYNNWPITFGQGTRLEIK
notes: also called mAb hRSV20
As for B2, the binding result in test [3] and in test [4] was “no binding (tested: 1 μg ml^−1)” each time. In test [1], the “plaque-reduction neutralization of RSV A2 (IC50)” value is 0.045 µg/mL.

B3: hRSV139 (antibody, V domains shown)
VH: QVQLVQSGAEVKKPGASVKVSCKASGYVFSNYGISWVRQAPGQGLEWMGWISAYNGNTEFAQKFQGRITMTTDTSTNTAYLEVRGLRSDDTAVYYCSRQSGVSGVPEFQDWGQGTLVTVSS
VL: QAVVTQSPLSLPVTLGQPASISCRSSQSLVYSNGDTYLSWFQQRPGQSPRRLIYKVSNRDSGVPDRFSASGSGTDFTLKISRVEAEDVGVYYCMQGTHWPPPTFGQGTRLEIK
notes: also called mAb hRSV139
Consider B3, for which the binding result in test [3] and in test [4] was “no binding (tested: 1 μg ml^−1)” throughout. Further, the “plaque-reduction neutralization of RSV A2 (IC50)” value in test [1] turned out to be 0.323 µg/mL.

B4: hRSV90 (human mAb, IgG) (antibody, V domains shown)
VH: EVQLVESGGGLVQPRRSLRLSCAASGFTFDDYTIHWVRQAPGKGLEWVSGITWNSGYIGYADSVKGRFTISRDNARNSLYLQMNSLRAEDTALYYCVRDAYVSGSDYYYYGLDVWGRGTLVTVSS
VL: EIVMTSSPATLSVSPGERVTLFCRASQSVISNLAWYQQKSGQAPRLLIYGASTRATGIPSRFSGSGSGTEFTLTISSLQSEDFAVYFCQQYNNWPLTFGGGTQVNVQ
notes: IgG1, kappa; also called mAb hRSV90
With B4, the binding result in test [3] and in test [4] was “no binding (tested: 1 μg ml^−1)” throughout. Besides, in test [1], the “plaque-reduction neutralization of RSV A2 (IC50)” value was determined as 0.004 µg/mL.

B5: hRSV97 (antibody, V domains shown)
VH: EVQLVESGGTLVQPGRSLRLSCAASGFNFEEYAMHWVRQVPGKGLEWVARINWNGGIIGYADSVKGRFTISRDNAKKSLYLQMNSLRTDDSALYYCGKDVFWAVAGTGGPIDSWGQGTLVTVSS
VL: DIVMTQSPSSLSASIGDRVTISCRASRDISNYLAWYQQKSGKVPKLLIYAASTLESGVPSRFSGSGSGTDFTLTISSLQPEDVATYYCQNYNSAQMCSFGQGPSLEIK
notes: also called mAb hRSV97
Regarding B5, the binding result in test [3] and in test [4] was “no binding (tested: 1 μg ml^−1)” each time. Moreover, the “plaque-reduction neutralization of RSV A2 (IC50)” value in test [1] worked out at 0.35 µg/mL.

B6: hRSV61 (antibody, V domains shown)
VH: QVQLVQSGAELKKPGASVKVSCKASGYTFTNHGITWVRQAPGQGLEWMSWISGYNGNTQYAQKFQGRVTMTTDTSTRTAYMELRSLTSDDTAVYYCARDNGVVVGPPDYWGQGTLVTVSS
VL: DIQMTQSPSTLSASVGDRVTISCRASQSISSWLAWYQQKPGKPPKLLIYKASGLQTGVPSRFSGSGSGTEFTLTISSLQPDDFATYYCQYYHSLSAFGQGTKVEIK
notes: also called mAb hRSV61
As for B6, the binding result in test [3] and in test [4] was “no binding (tested: 1 μg ml^−1)” throughout. The “plaque-reduction neutralization of RSV A2 (IC50)” value in test [1] came out at 0.09 µg/mL.

The values above are taken from paper PMC5463187 (Nature microbiology, 2017).
